In US20230301926A1 (EVOX THERAPEUTICS, published 2023):

Legend:
[1] = biological target: T1, human serum albumin (labelled with Alexa Fluor 488) (human, UniProt P02768 25-609, Alexa Fluor 488 label (site not stated)); test: Optiprep gradient and dot-blot of 4e10 HEK EVs incubated with 80 µg/ml Alexa Fluor 488 HSA
T1 construct: Used at 80 µg/ml in the Optiprep gradient / dot-blot assays; also called HSA
Method: This experiment was performed by incubating overnight at 4° C. 4e¹⁰ HEK EVs expressing the constructs detailed above with 80 µg/ml human serum albumin (labelled with Alexa Fluor 488) and a mix of tetraspanin antibody. The next day, EVs were separated by Optiprep gradient ultracentrifugation and 300 µl fractions were collected, 100 µl from each fraction were used for DOTBLOT analysis and 50 µl from three subsequent fractions were pulled and used for imaging (widefield and dSTORM) […] (CD9, CD63 and CD81, 1:100) labelled with Alexa […].

[2] = biological target: T2, FITC-human albumin (human, UniProt P02768 25-609, FITC label (site not stated)); test: in vitro albumin binding assay, protocol of Example 7
T2 construct: also called fluorescein isothiocyanate (FITC)-labeled albumin; FITC-albumin
T2 sequence (P02768 25-609 limits assumed): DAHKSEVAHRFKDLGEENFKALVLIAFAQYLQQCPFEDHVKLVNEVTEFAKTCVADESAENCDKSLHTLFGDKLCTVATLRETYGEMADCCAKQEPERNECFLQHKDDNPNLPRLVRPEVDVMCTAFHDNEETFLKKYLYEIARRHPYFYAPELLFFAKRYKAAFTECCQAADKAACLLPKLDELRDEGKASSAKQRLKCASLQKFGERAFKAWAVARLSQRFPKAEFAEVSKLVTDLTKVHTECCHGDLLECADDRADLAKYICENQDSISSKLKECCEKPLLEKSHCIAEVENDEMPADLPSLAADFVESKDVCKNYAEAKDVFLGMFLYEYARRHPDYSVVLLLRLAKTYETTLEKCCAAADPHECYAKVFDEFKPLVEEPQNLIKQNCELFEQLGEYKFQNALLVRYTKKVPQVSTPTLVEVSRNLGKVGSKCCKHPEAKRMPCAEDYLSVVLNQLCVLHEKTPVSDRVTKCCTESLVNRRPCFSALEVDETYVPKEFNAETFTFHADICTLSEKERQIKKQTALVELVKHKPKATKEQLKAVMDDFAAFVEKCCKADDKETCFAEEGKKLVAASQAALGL

[3] = biological target: T3, mouse serum albumin (mouse, UniProt P07724 25-608); test: EVs recovered from mouse serum 10 min after injection, gradient separation and dot-blot with anti-mouse serum albumin antibody
T3 construct: Albumin picked up by the EVs in the circulation of the mice
Method: Mice were injected with mCD63-ABD-2nd loop Nluc HEK EVs or mCD63-Nluc (no ABD control). Serum was collected 10 minutes after injection and purified with size-exclusion columns (qEV) to isolate EVs. 2.5×10¹⁰ EVs were then incubated overnight at 4° C. with an antibody anti-mouse serum albumin (labelled with FITC) and a mix of tetraspanin antibodies (human specific CD9, CD63 and CD81, 1:100) labelled with Alexa Fluor 647. The next day, EVs were separated by Optiprep gradient ultracentrifugation and 300 µl fractions were collected, 100 µl from each fraction were used for DOTBLOT analysis and 50 µl from three subsequent fractions were pulled and used for imaging (widefield)

[4] = biological target: T1, human serum albumin (labelled with …); test: Optiprep gradient ultracentrifugation and dot-blot of EVs incubated with Alexa Fluor 488 HSA
Method: Gradient separation was performed to assess the binding of albumin to EVs expressing ABD on the surface. The fusion constructs tested were: [0235] mCD63-Nluc (concentration: 1.37×10¹² particles/ml) [0236] mCD63-ABD-2nd loop Nluc (concentration: 6.5×10¹¹ particles/ml)
HEK EVs with albumin binding domain fused to different or both CD63 loops were incubated overnight at 4° C. 5 µl with 80 µg/ml human serum albumin (labelled with Alexa Fluor 488) and a mix of tetrspanin antibodies (CD9, CD63 and CD81, 1:100) labelled with Alexa Fluor 647. The next day, EVs were separated by Optiprep gradient ultracentrifugation and 300 µl fractions were collected, 100 µl from each fraction were used for DOTBLOT analysis and 50 µl from three subsequent fractions were pooled and used for imaging (widefield and dSTORM)

T1 sequence (P02768 25-609 limits assumed): as above

B1: hCD9-ABD-2ndloop-Nluc (other)
chain: MPVKGGTKCIKYLLFGFNFIFWLAGIAVLAIGLWLRFDSQTKSIMHFEQETNNNNSSFYTGVYILIGAGALMMLVGFLGCCGAVQESQCMLGLFFGFLLVIFAIEIAAAIWGYSHKDEVIKEVQEFYKDTYNKLKTKDEPQRETLKAIHYALNCCGLTRQHDEAVDANSLAEAKVLANRELDKYGVSDFYKRLINKAKTVEGVEALKLHILAALPTRAGGVEQFISDICPKKDVLETFTVKSCPDAIKEVFDNKFHIIGAVGIGIAVVMIFGMIFSMILCCAIRRNREMVGSVFTLEDFVGDWRQTAGYNLDQVLEQGGVSSLFQNLGVSVTPIQRIVLSGENGLKIDIHVIIPYEGLSGDQMGQIEKIFKVVYPVDDHHFKVILHYGTLVIDGVTPNMIDYFGRPYEGIAVFDGKKITVTGTLWNGNKIIDERLINPDGSLLFRVTINGVTGWRLCERILA
notes: also called hCD9-ABD 2 nd-Nluc
binding result [1]: binds

B2: Lamp2b-ABD-NanoLuc (other)
chain: LKFEQHDEAVDANSLAEAKVLANRELDKYGVSDFYKRLINKAKTVEGVEALKLHILAALPFETGGAPMHISQAVHAAHAEINEAGRSIINFEKLCTSVYDFFVWLGRGHLLGRLAAIVGKQVLLGRKVVVVRSHCHWNDLAVIPAGVVHNWDFEPRKVSPSKPSFQEFVDWENVSPELNSTDQPFLCTGSGSGSGSGSLKPAGILIPIIVGAGLSGLIIVIVIAYVIGRRKSYAGAQTLGGGGSYIPEAPRDGQAYVRKDGEWVLLSTFLSPANGTPTPTPTPTGRSLYPSLEDLKVDKVIQAQTAFSANPANPAILSEASAPIPHDGNLYPRLYPELSQYMGLSLEGGQLGTPTPTPTPTGGSVFTLEDFVGDWRQTAGYNLDQVLEQGGVSSLFQNLGVSVTPIQRIVLSGENGLKIDIHVIIPYEGLSGDQMGQIEKIFKVVYPVDDHHFKVILHYGTLVIDGVTPNMIDYFGRPYEGIAVFDGKKITVTGTLWNGNKIIDERLINPDGSLLFRVTINGVTGWRLCERILA
notes: also called Lamp2B-ABD-Nluc; Lamp2b-ABD-Nluc
binding result [2]: binds | binding result [1]: binds

B3: hCD81-ABD-2ndloop-Nluc (other)
chain: MGVEGCTKCIKYLLFVFNFVFWLAGGVILGVALWLRHDPQTTNLLYLEMHLGDKPAPNTFYVGIYILIAVGAVMMFVGFLGCYGAIQESQCLLGTFFTCLVILFACEVAAGIWGFVNKDQIAKDVKQFYDQALQQAVVDDDANNAKAVVKTFHETLDCCGSTRQHDEAVDANSLAEAKVLANRELDKYGVSDFYKRLINKAKTVEGVEALKLHILAALPTRSTLTALTTSVLKNNLCPSGSNIISNLFKEDCHQKIDDLFSGKLYLIGIAAIVVAVIMIFEMILSMVLCCGIRNSSVYGSVFTLEDFVGDWRQTAGYNLDQVLEQGGVSSLFQNLGVSVTPIQRIVLSGENGLKIDIHVIIPYEGLSGDQMGQIEKIFKVVYPVDDHHFKVILHYGTLVIDGVTPNMIDYFGRPYEGIAVFDGKKITVTGTLWNGNKIIDERLINPDGSLLFRVTINGVTGWRLCERILA
notes: also called hCD81-ABD 2 nd-Nluc
binding result [1]: binds

B4: hCD9-ABD-1stloop-Nluc (other)
chain: MPVKGGTKCIKYLLFGFNFIFWLAGIAVLAIGLWLRFDSQTKSIMHLAEAKVLANRELDKYGVSDFYKRLINKAKTVEGVEALKLHILAALPMHFEQETNNNNSSFYTGVYILIGAGALMMLVGFLGCCGAVQESQCMLGLFFGFLLVIFAIEIAAAIWGYSHKDEVIKEVQEFYKDTYNKLKTKDEPQRETLKAIHYALNCCGLTRAGGVEQFISDICPKKDVLETFTVKSCPDAIKEVFDNKFHIIGAVGIGIAVVMIFGMIFSMILCCAIRRNREMVGSVFTLEDFVGDWRQTAGYNLDQVLEQGGVSSLFQNLGVSVTPIQRIVLSGENGLKIDIHVIIPYEGLSGDQMGQIEKIFKVVYPVDDHHFKVILHYGTLVIDGVTPNMIDYFGRPYEGIAVFDGKKITVTGTLWNGNKIIDERLINPDGSLLFRVTINGVTGWRLCERILA
notes: also called hCD9-ABD 1 st-Nluc
binding result [1]: binds

B5: mCD63-ABD 2nd loop-NanoLuc (other)
chain: MAVEGGMKCVKFLLYVLLLAFCACAVGLIAIGVAVQVVLKQAMHITHETTAGSLLPVVIIAVGAFLFLVAFVGCCGACKENYCLMITFAIFLSLIMLVEVAVAIAGYVFRDQVKSEFNKSFQQQMQNYLKDNKTATILDKLQKENNCCGATRRTQHDEAVDANSLAEAKVLANRELDKYGVSDFYKRLINKAKTVEGVEALKLHILAALPRTCTSGTRSNYTDWENIPGMAKDRVPDSCCINITVGCGNDFKESTIHTQGCVETIAIWLRKNILLVAAAALGIAFVEVLGIIFSCCLVKSIRSGYEVMGSGSGSGSGSVFTLEDFVGDWRQTAGYNLDQVLEQGGVSSLFQNLGVSVTPIQRIVLSGENGLKIDIHVIIPYEGLSGDQMGQIEKIFKVVYPVDDHHFKVILHYGTLVIDGVTPNMIDYFGRPYEGIAVFDGKKITVTGTLWNGNKIIDERLINPDGSLLFRVTINGVTGWRLCERILAHHHHHH
notes: also called mCD63-ABD-2nd loop Nluc; mCD63-ABD 2nd loop-Nluc
binding result [3]: binds

B6: hCD9-ABD-2x-Nluc (ABD present in both loops) (other)
chain: MPVKGGTKCIKYLLFGFNFIFWLAGIAVLAIGLWLRFDSQTKSIMHLAEAKVLANRELDKYGVSDFYKRLINKAKTVEGVEALKLHILAALPMHFEQETNNNNSSFYTGVYILIGAGALMMLVGFLGCCGAVQESQCMLGLFFGFLLVIFAIEIAAAIWGYSHKDEVIKEVQEFYKDTYNKLKTKDEPQRETLKAIHYALNCCGLTRQHDEAVDANSLAEAKVLANRELDKYGVSDFYKRLINKAKTVEGVEALKLHILAALPTRAGGVEQFISDICPKKDVLETFTVKSCPDAIKEVFDNKFHIIGAVGIGIAVVMIFGMIFSMILCCAIRRNREMVGSVFTLEDFVGDWRQTAGYNLDQVLEQGGVSSLFQNLGVSVTPIQRIVLSGENGLKIDIHVIIPYEGLSGDQMGQIEKIFKVVYPVDDHHFKVILHYGTLVIDGVTPNMIDYFGRPYEGIAVFDGKKITVTGTLWNGNKIIDERLINPDGSLLFRVTINGVTGWRLCERILA
notes: also called hCD9-ABDX2-Nluc
binding result [1]: binds

B7: mCD63-NanoLuc (other)
chain: MAVEGGMKCVKFLLYVLLLAFCACAVGLIAIGVAVQVVLKQAMHITHETTAGSLLPVVIIAVGAFLFLVAFVGCCGACKENYCLMITFAIFLSLIMLVEVAVAIAGYVFRDQVKSEFNKSFQQQMQNYLKDNKTATILDKLQKENNCCGATRSNYTDWENIPGMAKDRVPDSCCINITVGCGNDFKESTIHTQGCVETIAIWLRKNILLVAAAALGIAFVEVLGIIFSCCLVKSIRSGYEVMGSGSGSGSGSVFTLEDFVGDWRQTAGYNLDQVLEQGGVSSLFQNLGVSVTPIQRIVLSGENGLKIDIHVIIPYEGLSGDQMGQIEKIFKVVYPVDDHHFKVILHYGTLVIDGVTPNMIDYFGRPYEGIAVFDGKKITVTGTLWNGNKIIDERLINPDGSLLFRVTINGVTGWRLCERILAHHHHHH
notes: Control fusion of CD63 and nanoluc reporter lacking ABD, carried on EVs in the assays; His tag of the entry is called optional; also called mCD63-Nluc; control EVs
binding result [4]: no binding (tested: 80 µg/ml human serum albumin)

B8: hCD81-ABD-2x-Nluc (ABD present in both loops) (other)
chain: MGVEGCTKCIKYLLFVFNFVFWLAGGVILGVALWLRHDPQTTNLLYLEMHLAEAKVLANRELDKYGVSDFYKRLINKAKTVEGVEALKLHILAALPMHLGDKPAPNTFYVGIYILIAVGAVMMFVGFLGCYGAIQESQCLLGTFFTCLVILFACEVAAGIWGFVNKDQIAKDVKQFYDQALQQAVVDDDANNAKAVVKTFHETLDCCGSTRQHDEAVDANSLAEAKVLANRELDKYGVSDFYKRLINKAKTVEGVEALKLHILAALPTRSTLTALTTSVLKNNLCPSGSNIISNLFKEDCHQKIDDLFSGKLYLIGIAAIVVAVIMIFEMILSMVLCCGIRNSSVYGSVFTLEDFVGDWRQTAGYNLDQVLEQGGVSSLFQNLGVSVTPIQRIVLSGENGLKIDIHVIIPYEGLSGDQMGQIEKIFKVVYPVDDHHFKVILHYGTLVIDGVTPNMIDYFGRPYEGIAVFDGKKITVTGTLWNGNKIIDERLINPDGSLLFRVTINGVTGWRLCERILA
notes: also called hCD81-ABDX2-Nluc
binding result [1]: binds

B9: hCD81-ABD-1stloop-Nluc (other)
chain: MGVEGCTKCIKYLLFVFNFVFWLAGGVILGVALWLRHDPQTTNLLYLEMHLAEAKVLANRELDKYGVSDFYKRLINKAKTVEGVEALKLHILAALPMHLGDKPAPNTFYVGIYILIAVGAVMMFVGFLGCYGAIQESQCLLGTFFTCLVILFACEVAAGIWGFVNKDQIAKDVKQFYDQALQQAVVDDDANNAKAVVKTFHETLDCCGSTRSTLTALTTSVLKNNLCPSGSNIISNLFKEDCHQKIDDLFSGKLYLIGIAAIVVAVIMIFEMILSMVLCCGIRNSSVYGSVFTLEDFVGDWRQTAGYNLDQVLEQGGVSSLFQNLGVSVTPIQRIVLSGENGLKIDIHVIIPYEGLSGDQMGQIEKIFKVVYPVDDHHFKVILHYGTLVIDGVTPNMIDYFGRPYEGIAVFDGKKITVTGTLWNGNKIIDERLINPDGSLLFRVTINGVTGWRLCERILA
notes: also called hCD81-ABD 1 st-Nluc
binding result [1]: binds
